The source of these data is the Human Domainome abundance scans (Beltran et al. 2025).

± gives the uncertainty stated by the source.

The chains are these.
B1: LIM and senescent cell antigen-like-containing domain protein 2, residues 13 to 71; numbered along this chain, Q7Z4I7 (parent)
chain: AVCQRCQARFSPAERIVNSNGELYHEHCFVCAQCFRPFPEGLFYEFEGRKYCEHDFQML

Variants of B1 are the subject of this series. Kind of series: abundance fitness (aPCA) (normalised: wild type 0, dead -1); higher = more abundant; growth selection in yeast, the domain comes from the species named. The note with it: Homo sapiens.
For AVCQRCQARFSPAERIVNSNGELYHEHCMVCAQCFRPFPEGLFYEFEGRKYCEHDFQML [F29M], the abundance fitness was found to be 0.1 ± 0.077.
To AVCQRCQARFSPAERIVNSNGELYHEHCWVCAQCFRPFPEGLFYEFEGRKYCEHDFQML [F29W] belongs 0.008 ± 0.079.
Consider AVCQRCQARFSPAERIVNSNGELYHEHCCVCAQCFRPFPEGLFYEFEGRKYCEHDFQML [F29C], for which the abundance fitness is -0.012 ± 0.097.
In the case of AVCQRCQARFSPAERIVNSNGELYHEHCNVCAQCFRPFPEGLFYEFEGRKYCEHDFQML [F29N], the abundance fitness is -0.175 ± 0.12.
Consider AVCQRCQARFSPAERIVNSNGELYHEHCSVCAQCFRPFPEGLFYEFEGRKYCEHDFQML [F29S], for which the abundance fitness was -0.155 ± 0.06.
Then AVCQRCQARFSPAERIVNSNGELYHEHCHVCAQCFRPFPEGLFYEFEGRKYCEHDFQML [F29H], with 0.042 ± 0.11; and AVCQRCQARFSPAERIVNSNGELYHEHCYVCAQCFRPFPEGLFYEFEGRKYCEHDFQML [F29Y], with -0.2 ± 0.11.
Regarding AVCQRCQARFSPAERIVNSNGELYHEHCGVCAQCFRPFPEGLFYEFEGRKYCEHDFQML [F29G], the abundance fitness was -0.019 ± 0.1.
Consider AVCQRCQARFSPAERIVNSNGELYHEHCVVCAQCFRPFPEGLFYEFEGRKYCEHDFQML [F29V], for which the abundance fitness is -0.083 ± 0.085.
To AVCQRCQARFSPAERIVNSNGELYHEHCLVCAQCFRPFPEGLFYEFEGRKYCEHDFQML [F29L] belongs -0.011 ± 0.051; to AVCQRCQARFSPAERIVNSNGELYHEHCKVCAQCFRPFPEGLFYEFEGRKYCEHDFQML [F29K], -0.407 ± 0.089.
Regarding AVCQRCQARFSPAERIVNSNGELYHEHCIVCAQCFRPFPEGLFYEFEGRKYCEHDFQML [F29I], the abundance fitness worked out at 0.015 ± 0.097.
As for AVCQRCQARFSPAERIVNSNGELYHEHGFVCAQCFRPFPEGLFYEFEGRKYCEHDFQML [C28G], the abundance fitness was -0.987 ± 0.14.
Regarding AVCQRCQARFSPAERIVNSNGELYHEHKFVCAQCFRPFPEGLFYEFEGRKYCEHDFQML [C28K], the abundance fitness is -0.538 ± 0.14.
As to AVCQRCQARFSPAERIVNSNGELYHEHMFVCAQCFRPFPEGLFYEFEGRKYCEHDFQML [C28M], the abundance fitness was -0.418 ± 0.15.
Turning to AVCQRCQARFSPAERIVNSNGELYHEHPFVCAQCFRPFPEGLFYEFEGRKYCEHDFQML [C28P], the abundance fitness was -1.13 ± 0.35.
To AVCQRCQARFSPAERIVNSNGELYHEHEFVCAQCFRPFPEGLFYEFEGRKYCEHDFQML [C28E] belongs -0.62 ± 0.12; to AVCQRCQARFSPAERIVNSNGELYHEHDFVCAQCFRPFPEGLFYEFEGRKYCEHDFQML [C28D], -0.322 ± 0.2; to AVCQRCQARFSPAERIVNSNGELYHEHFFVCAQCFRPFPEGLFYEFEGRKYCEHDFQML [C28F], -0.994 ± 0.22.
AVCQRCQARFSPAERIVNSNGELYHEHSFVCAQCFRPFPEGLFYEFEGRKYCEHDFQML [C28S]: the abundance fitness is -0.832 ± 0.13.
In the case of AVCQRCQARFSPAERIVNSNGELYHEHLFVCAQCFRPFPEGLFYEFEGRKYCEHDFQML [C28L], the abundance fitness is -1.08 ± 0.13.
Consider AVCQRCQARFSPAERIVNSNGELYHEHAFVCAQCFRPFPEGLFYEFEGRKYCEHDFQML [C28A], for which the abundance fitness is -0.292 ± 0.083.
Regarding AVCQRCQARFSPAERIVNSNGELYHEHRFVCAQCFRPFPEGLFYEFEGRKYCEHDFQML [C28R], the abundance fitness was -0.718 ± 0.092.
To AVCQRCQARFSPAERIVNSNGELYHEHVFVCAQCFRPFPEGLFYEFEGRKYCEHDFQML [C28V] belongs -0.77 ± 0.098.
Regarding AVCQRCQARFSPAERIVNSNGELYHEHHFVCAQCFRPFPEGLFYEFEGRKYCEHDFQML [C28H], the abundance fitness was -0.089 ± 0.31.
AVCQRCQARFSPAERIVNSNGELYHEHIFVCAQCFRPFPEGLFYEFEGRKYCEHDFQML [C28I]: the abundance fitness was -0.728 ± 0.2.
With AVCQRCQARFSPAERIVNSNGELYHEHQFVCAQCFRPFPEGLFYEFEGRKYCEHDFQML [C28Q], the abundance fitness is -0.872 ± 0.19.
As to AVCQRCQARFSPAERIVNSNGELYHEHWFVCAQCFRPFPEGLFYEFEGRKYCEHDFQML [C28W], the abundance fitness is -0.996 ± 0.21.
Regarding AVCQRCQARFSPAERIVNSNGELYHEHCFYCAQCFRPFPEGLFYEFEGRKYCEHDFQML [V30Y], the abundance fitness was -0.343 ± 0.11.
In the case of AVCQRCQARFSPAERIVNSNGELYHEHCFICAQCFRPFPEGLFYEFEGRKYCEHDFQML [V30I], the abundance fitness was -0.252 ± 0.12.
For AVCQRCQARFSPAERIVNSNGELYHEHCFFCAQCFRPFPEGLFYEFEGRKYCEHDFQML [V30F], the abundance fitness is -0.097 ± 0.092.
For the variant AVCQRCQARFSPAERIVNSNGELYHEHCFDCAQCFRPFPEGLFYEFEGRKYCEHDFQML [V30D], the abundance fitness is -0.798 ± 0.27.
As to AVCQRCQARFSPAERIVNSNGELYHEHCFKCAQCFRPFPEGLFYEFEGRKYCEHDFQML [V30K], the abundance fitness is -0.224 ± 0.11.
To AVCQRCQARFSPAERIVNSNGELYHEHCFHCAQCFRPFPEGLFYEFEGRKYCEHDFQML [V30H] belongs -0.143 ± 0.18.
In the case of AVCQRCQARFSPAERIVNSNGELYHEHCFQCAQCFRPFPEGLFYEFEGRKYCEHDFQML [V30Q], the abundance fitness was -0.265 ± 0.13.
For AVCQRCQARFSPAERIVNSNGELYHEHCFLCAQCFRPFPEGLFYEFEGRKYCEHDFQML [V30L], the abundance fitness was -0.021 ± 0.062.
Then AVCQRCQARFSPAERIVNSNGELYHEHCFSCAQCFRPFPEGLFYEFEGRKYCEHDFQML [V30S], with -0.114 ± 0.063.
Then AVCQRCQARFSPAERIVNSNGELYHEHCFCCAQCFRPFPEGLFYEFEGRKYCEHDFQML [V30C], with -0.11 ± 0.08; and AVCQRCQARFSPAERIVNSNGELYHEHCFGCAQCFRPFPEGLFYEFEGRKYCEHDFQML [V30G], with -0.233 ± 0.076; and AVCQRCQARFSPAERIVNSNGELYHEHCFMCAQCFRPFPEGLFYEFEGRKYCEHDFQML [V30M], with -0.311 ± 0.1.
For AVCQRCQARFSPAERIVNSNGELYHEHCFTCAQCFRPFPEGLFYEFEGRKYCEHDFQML [V30T], the abundance fitness is -0.065 ± 0.084.
To AVCQRCQARFSPAERIVNSNGELYHEHCFWCAQCFRPFPEGLFYEFEGRKYCEHDFQML [V30W] belongs -0.411 ± 0.13; to AVCQRCQARFSPAERIVNSNGELYHEHCFNCAQCFRPFPEGLFYEFEGRKYCEHDFQML [V30N], -0.257 ± 0.14; to AVCQRCQARFSPAERIVNSNGELYHEHCFECAQCFRPFPEGLFYEFEGRKYCEHDFQML [V30E], -0.294 ± 0.16.
Regarding AVCQRCQARFSPAERIVNSNGELYHEHCFRCAQCFRPFPEGLFYEFEGRKYCEHDFQML [V30R], the abundance fitness is -0.093 ± 0.059.
